According to the nanobody polyreactivity screen of Harvey et al. (2022):

experiment: yeast display, Sf9 membrane polyspecificity reagent, FACS + sequencing; frameworks hold sequencing errors
Method in brief: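 Polyreactivity labels are assigned by the sorting gate from which each nanobody was recovered. The gates were low and high (top ~1%), set on anti-HA fluorescence for expression and streptavidin fluorescence for reagent binding. Before sorting, galactose-induced (36–48 hours) yeast display cells were stained for 1 hour at 4 °C with 10% biotinylated, detergent-solubilized Sf9 membrane reagent.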

Row | Sequence | polyreactivity (PSR sort gate)
1 | QVQLVESGGGLVQAGGSLRLSCAASGGTFGYNAMGWYRQAPGKERELVADITRGGITYYADSVKGRFTISRDNAKNTVYLQMNSLKPEDTAVYYCNAEYYVFSYSYGGVLRGDYWGQGTQVTVSS | high polyreactivity
2 | QVQLVESGGGLVQAGGSLRLSCAASGGTFHLNAMGWYRQAPRKEREFVASISWSGGSTYYADSVKGRFTISRDNAKNTVYLQMNCLKPEDTAVYYCARRKYYRQGGRTKGYDYWGQGTQVTVSS | high polyreactivity
3 | QVQLVESGGGLVQAGGSLRLSCAASGGTFHYYAMGWYRQAPGKERELVAAINRSGDSTYYADSVKGRFTISRDNAKNTVYLQMNSLKPEDTAVYYCAVSYYGADGNPFPHDYWGQGTQVTVSS | low polyreactivity
4 | QVQLVESGGGLVQAGGSLRLSCAASGGTFITNAMGWYRKAPGKERELVAAITSGGRTTYADSVKGRFTISRDNAKNTVDLQMNSLKPVDTAVYYCAADHVYSSTYFLDDYWGQGTQVTVSS | low polyreactivity
5 | QVQLVESGGGLVQAGGSLRLSCAASGGTFLFYGMGWYRQAPGNERELVAVITWSGGSTYYADSVKGRFTISRDTAKNTVYLHMNSLKPVDTAVYYCAADGYFYFDYPWMNYWGQGTQVTVSS | low polyreactivity
6 | QVQLVESGGGLVQAGGSLRLSCAASGGTFLNYAMGWYRQAPGKERELVAVITNGDSTYYADSVKGRFTISRDNAKNSVYLQMNSLKPEDTAVYYCNADDWGQYNIWYDYWGQGTQVTVSS | low polyreactivity
7 | QVQLVESGGGLVQAGGSLRLSCAASGGTFLSNAMGWYRQAPGKERELVAAISASSGSTYYADSVKGRFTISRDNAKNPVYLQMNSVKPEDTAVYYCAKERRASVVRYDYWGQGTQVTVSS | low polyreactivity
8 | QVQLVESGGGLVQAGGSLRLSCAASGGTFNGYAMGWYRQAPGKERELVAAITSSGGSTYYADSVKGRFTISRDNAKNTVYLQMNSLKPEDTAVYYCAAALYPTYDVVRGYAYEYWGQGTQVTVSS | low polyreactivity
9 | QVQLVESGGGLVQAGGSLRLSCAASGGTFNSNAMGWYRQAPGKERELVASITWRCGTYYADSVKGRFTISRDNAKNTVYLQMNSLKPVDTAVYYCAADTYYKGDYWGQGTQVTVSS | high polyreactivity
10 | QVQLVESGGGLVQAGGSLRLSCAASGGTFNSNAMGWYRQAPGKERELVASITWRGGTYYADSVKGRFTISRDNAKNTVYLQMNSLKPEDTAVYYCAARGTIPGIHWIYYYWGQGTQVTVSS | high polyreactivity
11 | QVQLVESGGGLVQAGGSLRLSCAASGGTFNTNAMGWYRQAPGKERELVATIRGGVITTYADSVKGRFTISRDNAKNTVYLQMNSLKPEDTAVYYCAVDDLRGYDYWGQGTQVTVSS | low polyreactivity
12 | QVQLVESGGGLVQAGGSLRLSCAASGGTFPRNAMGWYRQAPGKERELVAAISRRGGSTYYADSVKGRFTISRDNAKNTVYLQMNSLKPEDTAVYYCATVQDKTYEYGYWGQGTQVTVSS | high polyreactivity
13 | QVQLVESGGGLVQAGGSLRLSCAASGGTFPTNAMGWYRQAPGKERELVAAITSSGVRTYYADSVKGRFTISRDNAKNTVYLQMNSLKPEDTAVYYCATYSYTWMNYYWGQGTQVTVSS | high polyreactivity
14 | QVQLVESGGGLVQAGGSLRLSCAASGGTFQDYGMGWYRQAPGKERELVAAITWSGGSTYYADSVKGRFTISRDNAKNTVYLQMNSLKPEDTAVYYCAAVYADVYLYLTAYDYWGQGTQVTVSS | low polyreactivity
15 | QVQLVESGGGLVQAGGSLRLSCAASGGTFQINAMGWYRQAPGKEREMVAAISAAGGRTYYADSVKGRFTISRDNANNTVYLQMNSLKPEDTAVSYCAADWSYQVGRHQYFPMRYDYWGQGTQVTVSS | high polyreactivity
16 | QVQLVESGGGLVQAGGSLRLSCAASGGTFRANAMGWYRQAPGKERELVAAISFRGGTTYYADSVKGRFTISRDNAKNTVYLQMNSLKPEDTAVYYCAARFLYYFRGKGYDYWGQGTQVTVSS | high polyreactivity
17 | QVQLVESGGGLVQAGGSLRLSCAASGGTFRKYAMGWYRPAPGKERELVATISNGGSTYYADSVKGRFTISRDNAKNTVYLQMNSLIPEDTAVYYCAARFDYWVSGGLVKYNYWGQGTQVTVSS | high polyreactivity
18 | QVQLVESGGGLVQAGGSLRLSCAASGGTFRLYAMGWYRQAPGKDRELVAAITGVGSTNYADSVKGRFTISRDNAKNTVYLQMNSLKPEDTAVYYCAAYYWSQVLIQGYYSWGQGTQVTVSS | high polyreactivity
19 | QVQLVESGGGLVQAGGSLRLSCAASGGTFRSNAMGWYRQAPGKERELVAASTNYADSVKGRFTISRDNAKTTVYLQMNSLKPEDTAVYFCAARLASWPLTYDFQWYEYWGQGTQVTLSS | low polyreactivity
20 | QVQLVESGGGLVQAGGSLRLSCAASGGTFRSYAMGWFRQAPGKERELVASISSGGTTNYADSVKGRFTISRDNAKNTVYLQLTSLKPEDTAVYYCAKSYPGRAPGYYSWGQGTQVTVSS | low polyreactivity
21 | QVQLVESGGGLVQAGGSLRLSCAASGGTFRVYAMGWYRQAPGKERELVASISWTVGGTYADSVKGRFTISRDNAKNTVYLQMNSLKPEDTAVYYCAAGGEWVNPYFPSSLDYWGQGTQVTVSS | low polyreactivity
22 | QVQLVESGGGLVQAGGSLRLSCAASGGTFRVYVMGWYRQAPGKERELVADISRGGGSTYYADSVKGRFTISRDNAKNTVYLQMNSLKPEDTAVYYCAARVCRYPWRASEYDYWGQGTQVTVSS | high polyreactivity

Row | Sequence | polyreactivity (PSR sort gate)
23 | QVQLVESGGGLVQAGGSLRLSCAASGGTFRYNAKGWYRQAPGKERELFATISIRGASTYYADSVKGRITISRDNAKHSVYLQLNSLKPEDTAVFYCAAERRNSYVLLIKYNYWGQGTQVTVSS | low polyreactivity
24 | QVQLVESGGGLVQAGGSLRLSCAASGGTFRYNAMGWYRQAPGKERELVAAISSSGGSTYYADSVKGRFTISRDNAKNTVYLQMNSLKPEDTAVYYCAAKRRRYVELDYWGQVTQVTVSS | high polyreactivity
25 | QVQLVESGGGLVQAGGSLRLSCAASGGTFRYYAMGRYRPAPGKERDLVARIRYNGGSTYYADSVKGRFTISRDNAKNTVSLQMKSLKPEDTAVDYCAAVGRYPRTWMNYWGQGNQVTVSS | high polyreactivity
26 | QVQLVESGGGLVQAGGSLRLSCAASGGTFRYYTMGWYRQAPGKERELVASISGGGRTYYADSVKGRFTISRDNAKITVYLQMNSLKPEDTAVYYCNARNRVYYTLSGYGYWGQGTQVTVSS | high polyreactivity
27 | QVQLVESGGGLVQAGGSLRLSCAASGGTFSFNAMGWYRQAPGKERELVAAITQTGDGTYYADSVKGRFTISRDNAKNTVYLQMNSLKPEDTAVYYCNTDSIPYVPWFRFDYWGQGTQVTVSS | low polyreactivity
28 | QVQLVESGGGLVQAGGSLRLSCAASGGTFSGYVMGWYRQAPGKERELVAAISRRGTTTYYADSVKGRFTISRDNAKNTVYLQMISLKPEDTAVYYCAAVTRWKRTLSSFYYWGQGTQVTVSS | high polyreactivity
29 | QVQLVESGGGLVQAGGSLRLSCAASGGTFSRYAMGWYRQAPGKERELVAAITRSGASTFYADSVKGRFTISRDNAKNTVYLQMNSLKPEDTAVYYCAADTYVYNEYDYWGQGTQVTVSS | high polyreactivity
30 | QVQLVESGGGLVQAGGSLRLSCAASGGTFSSNAMGWYRQAPGKERELVAAISGSGDRTYYADSVKGRFTISRDNAKNTVYLQMNSLKPEDTAVYYCAKTLHKGSRGRYNYWGQGTQVTVSS | high polyreactivity
31 | QVQLVESGGGLVQAGGSLRLSCAASGGTFSTYAMGWYRQAPGKERELVAAISYSTGNTYYADSVKGRFTISRDNAKNTVYFQMNSLKPEDTAVYYCATLGGSQRGLGSFTRKYDYWGQGTQVTVSS | low polyreactivity
32 | QVQLVESGGGLVQAGGSLRLSCAASGGTFSYYAMGWYRQAPGKERELVAAINWSGASTYYADSVKGRFTISRDNAKNTVYLQMNSLKPEDTAVYYCNVYLGILYKYDYWGQGTQVTVSS | low polyreactivity
33 | QVQLVESGGGLVQAGGSLRLSCAASGGTFSYYAMGWYRQAPGKERELVAAITYSGDRTYYADSVKGRFTISRDNAKNTVFLQMNSLKPEDTAVYYCNAVRGSWYGYYYWGQGTQVTVSS | high polyreactivity
34 | QVQLVESGGGLVQAGGSLRLSCAASGGTFTAYAMGWYRQAPGKERELVAAISASGDSTYYADSVKGRFTISRDNAKNTVYLQMNSLKPEDTAVYYCNADWYRTGRRGSDYWGQGTQVTVSS | low polyreactivity
35 | QVQLVESGGGLVQAGGSLRLSCAASGGTFTFYAMGWYRQATGKEMELVATINWSGGSTYYADSVKGRFTISRDNAKNTVYLQMNSLKPEDTAVYYCNAAWPYKSVEYWGQGTQVTVSS | low polyreactivity
36 | QVQLVESGGGLVQAGGSLRLSCAASGGTFTGYAMGWYRQAPGKERELVAAISYSGTRTYYADSVKGRFTISRDNAKNTVYLQMNSLKPEDTAVYYCNALYAIWHDYWGQGTQVTVSS | high polyreactivity
37 | QVQLVESGGGLVQAGGSLRLSCAASGGTFVGYTMGWYRQAPGKERELVAGIRTRSGSTSYADSVKGRFTISRDNAKNTVYLQMNSLKPEDTAVYYCAARPYGRYPYPEYYYWGQGTQVTVSS | high polyreactivity
38 | QVQLVESGGGLVQAGGSLRLSCAASGGTFVYNAMGWYRQAPGKERELVAAIRVRGDTTYYADSVKGRFTISRDNAKYTVYLQMNSLKPEDTAVYYCAAYPDYSYYYWGQGTQVTVSS | high polyreactivity
39 | QVQLVESGGGLVQAGGSLRLSCAASGGTFWIYAMGWYRQAPGKERELVAGITTSGATTYYADSVKGRFTISRDNAKNTVYLQMNSLKPEDTAVYYCAAVIRPRYYQVRPRYDYWGQGTQVTVSS | low polyreactivity
40 | QVQLVESGGGLVQAGGSLRLSCAASGGTFYAYAMGSYRQAPGKERELVAAITNSGGSTYYADSVKGRFTISRDNAKNNVYLQMHSLKPEDTAVYYCARRRSYRDNYWGQGTQVTVSS | high polyreactivity
41 | QVQLVESGGGLVQAGGSLRLSCAASGGTFYAYAMGWYRQAPGKERELVAAITRSGGRPYYADSVKGRVTISRDNAKNTVYLQMNSLKPEDTEVYYCAADPHHYSGLDYWGQGTHVTVSS | low polyreactivity
42 | QVQLVESGGGLVQAGGSLRLSCAASGGTFYFNAMGWYRQAPGKERELVATIRYSGGSTYYADSVKGRFTISRDNAKNTVYLQMNSLKPEDTAVYYCNARPRYLSPYRPFKYNYWGQGTQVTVSS | high polyreactivity
43 | QVQLVESGGGLVQAGGSLRLSCAASGGTFYFYAMGWDRQAPGKERELVAAISRSVGSTYYADSVKGRFTISRDNAKNTVYLQMNSLKPEDTAVYYCAARYTGGGIRYDYWGQGTQVTLSS | high polyreactivity
